From US20230174604A1 (Innovent, published 2023) come the findings set out here.

This assay addresses T1, IL-2Rα-Biotin (biotin-labeled human IL-2Rα, UniProt P01589 aa22-217, with C-terminal avi tag and His6 tag) (human, UniProt P01589 22-217, biotin on the avi tag (enzymatic labeling with BirA)).
T1 construct: Expressed in HEK293-F, monomer peak collected; loaded on SA sensor or used to stain yeast; also called CD25; IL-2Rα receptor
T1 sequence: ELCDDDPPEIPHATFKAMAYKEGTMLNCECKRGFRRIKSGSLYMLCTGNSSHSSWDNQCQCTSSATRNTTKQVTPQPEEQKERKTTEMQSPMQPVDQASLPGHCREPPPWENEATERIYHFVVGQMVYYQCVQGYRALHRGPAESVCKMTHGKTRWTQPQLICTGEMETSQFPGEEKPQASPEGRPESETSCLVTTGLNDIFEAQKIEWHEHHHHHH
As to the kind of experiment: flow cytometry, yeast-displayed IL-2 stained with IL-2Rα-Biotin. Here is the method:
Yeast cells comprising a single mutant sequence after sequencing were induced by shaking at 20° C. for 24 h to display IL-2^mutant, and stained together with their receptors IL-2Rα-Biotin and IL-2Rβ IH-Biotin, respectively. The specific steps were as follows: [0191] […] 1. 1×10⁶ cells from each sample were centrifuged to discard the supernatant, and washed with FACS buffer once for later use; [0193] 2. the cells were added to 100 μL of FACS buffer containing 50 nM IL-2Rα-Biotin and Anti Flag antibody, and incubated at room temperature for 30 min; [0194] 3. the mixture was centrifuged at 3000 rpm at 4° C. for 3 min, and washed twice with pre-cooled FACS buffer; [0195] 4. […] 5. after being washed twice with pre-cooled FACS buffer, the cells were resuspended in 100 μL of buffer, and the binding level of IL-2^mutant to IL-2Rα was assayed by a flow cytometer (BD, ACCURI C6). [0197] II. […] 1. 1×10⁶ cells from each sample were centrifuged to discard the supernatant, and washed with FACS buffer once for later use; [0199] 2. the cells were added to 100 μL of FACS buffer containing IL-2Rβ IH-Biotin (30 nM-100 nM) and Anti Flag antibody, and incubated at room temperature for 30 min; [0200] 3. following steps 3-5 described above, the binding level of IL-2′ to IL-2Rβ was assayed.
In general terms: In flow cytometry, cells or beads pass a laser one at a time.

B1: IL-2^3X displayed on the surface of yeasts (ligand)
chain: APTSSSTKKTQLQLEHLLLDLQMILNGINNYKNPKLTDMLTFEFYMPKKATELKHLQCLERELKPLEEVLNLAQSKNFHLRPRDLISNINVIVLELKGSETTFMCEYADETATIVEFLNRWITFSQSIISTLT
notes: control in the flow cytometry staining
As to B1, the binding result was “no binding (tested: 50 nM IL-2Rα-Biotin)”.
